Experimental data reported in article PMC8666670, “Malonyl-acyl carrier protein decarboxylase activity promotes fatty acid and cell envelope biosynthesis in Proteobacteria” (The Journal of Biological Chemistry, 2021).
Each block holds one substance with its values, some of them ahead of it.

Key:
[1] = biological target: MadB(D79A) (S. oneidensis); experiment: not stated; dimeric structures of the MadB catalytic loop mutants, data in Table S3
[2] = biological target: MadB(S54A) (S. oneidensis); experiment: as above
[3] = biological target: MadB, standalone hot dog malonyl-ACP decarboxylase of Shewanella oneidensis (S. oneidensis); experiment: SEC; gel filtration chromatography of the purified recombinant protein
[4] = biological target: MadB, standalone hot dog malonyl-ACP decarboxylase of Shewanella oneidensis (S. oneidensis); experiment: AUC; sedimentation analysis (methods: sedimentation velocity, 50,000 rpm, interference optics), 0.02 M Tris pH 7.5, 0.5 M NaCl, 20 °C, no reducing agents
[5] = biological target: MadB(N45A) (S. oneidensis); experiment: not stated; dimeric structures of the MadB catalytic loop mutants, data in Table S3
[6] = biological target: MadB(N43A) (S. oneidensis); experiment: as above
[7] = biological target: MadB(T49A) (S. oneidensis); experiment: as above
[8] = biological target: MadB(H47A) (S. oneidensis); experiment: as above

stoichiometry N [1]: 2
Substance: MadB(D79A) (enzyme)

stoichiometry N [2]: 2
Substance: MadB(S54A) (enzyme)

stoichiometry N [3]: 2
stoichiometry N [4]: 2
Substance: MadB, standalone hot dog malonyl-ACP decarboxylase of Shewanella oneidensis (enzyme)

stoichiometry N [5]: 2
Substance: MadB(N45A) (enzyme)

stoichiometry N [6]: 2
Substance: MadB(N43A) (enzyme)

stoichiometry N [7]: 2
Substance: MadB(T49A) (enzyme)

stoichiometry N [8]: 2
Substance: MadB(H47A) (enzyme)
